Data as given in ChEMBL document CHEMBL1145519, “Exploitation of structural and regulatory diversity in glutamate racemases” (Nature, 2007).

Columns and labels:
[1] = substrate: N[C@@H](CCC(=O)O)C(=O)O; test: (§1) Activity of Enterococcus faecalis MurI
[2] = substrate: N[C@H](CCC(=O)O)C(=O)O; test: as §1
[3] = substrate: N[C@@H](CCC(=O)O)C(=O)O; settings: Helicobacter pylori
Description: Activity of Helicobacter pylori MurI

[4] = substrate: N[C@H](CCC(=O)O)C(=O)O; settings: Helicobacter pylori
Description: Activity of Helicobacter pylori MurI

[5] = substrate: N[C@@H](CCC(=O)O)C(=O)O; settings: Helicobacter pylori; remark: listed apart in the source
Description: (§2) Activity of Helicobacter pylori MurI A75T mutant

[6] = substrate: N[C@H](CCC(=O)O)C(=O)O; settings: Helicobacter pylori; remark: listed apart in the source
Description: as §2

[7] = substrate: N[C@@H](CCC(=O)O)C(=O)O; settings: Helicobacter pylori; remark: listed apart in the source
Description: (§3) Activity of Helicobacter pylori MurI E151K mutant

[8] = substrate: N[C@H](CCC(=O)O)C(=O)O; settings: Helicobacter pylori; remark: listed apart in the source
Description: as §3

B1: Glutamate racemase (Enterococcus faecalis (strain ATCC 700802 / V583)), Q836J0 (protein)
chain: MSNQEAIGLIDSGVGGLTVLKEALKQLPNERLIYLGDTARCPYGPRPAEQVVQFTWEMADFLLKKRIKMLVIACNTATAVALEEIKAALPIPVVGVILPGARAAVKVTKNNKIGVIGTLGTIKSASYEIAIKSKAPTIEVTSLDCPKFVPIVESNQYRSSVAKKIVAETLQALQLKGLDTLILGCTHYPLLRPVIQNVMGSHVTLIDSGAETVGEVSMLLDYFDIAHTPEAPTQPHEFYTTGSAKMFEEIASSWLGIENLKAQQIHLGGNEND
[1]
  Km: 1200 µM
  kcat: 25 s⁻¹
[2]
  Km: 250 µM
  kcat: 11.7 s⁻¹

B2: Glutamate racemase (Helicobacter pylori (strain ATCC 700392 / 26695) (Campylobacterpylori)), P56068 (protein)
chain: MKIGVFDSGVGGFSVLKSLLKAQLFDEIIYYGDSARVPYGTKDPTTIKQFGLEALDFFKPHQIKLLIVACNTASALALEEMQKHSKIPVVGVIEPSILAIKRQVKDKNAPILVLGTKATIQSNAYDNALKQQGYLNVSHLATSLFVPLIEESILEGELLETCMRYYFTPLEILPEVVILGCTHFPLIAQKIEGYFMEHFALSTPPLLIHSGDAIVEYLQQNYALKKNACAFPKVEFHASGDVVWLEKQAKEWLKL
[3]
  Km: 740 µM
  kcat: 1.05 s⁻¹
[4]
  Km: 63 µM
  kcat: 0.2 s⁻¹

B3: Glutamate racemase (Helicobacter pylori (strain ATCC 700392 / 26695) (Campylobacterpylori)), P56068 A75T (protein)
chain: MKIGVFDSGVGGFSVLKSLLKAQLFDEIIYYGDSARVPYGTKDPTTIKQFGLEALDFFKPHQIKLLIVACNTASTLALEEMQKHSKIPVVGVIEPSILAIKRQVKDKNAPILVLGTKATIQSNAYDNALKQQGYLNVSHLATSLFVPLIEESILEGELLETCMRYYFTPLEILPEVVILGCTHFPLIAQKIEGYFMEHFALSTPPLLIHSGDAIVEYLQQNYALKKNACAFPKVEFHASGDVVWLEKQAKEWLKL
[5]
  Km: 7430 µM
  kcat: 1.78 s⁻¹
[6]
  Km: 275 µM
  kcat: 0.065 s⁻¹

B4: Glutamate racemase (Helicobacter pylori (strain ATCC 700392 / 26695) (Campylobacterpylori)), P56068 E151K (protein)
chain: MKIGVFDSGVGGFSVLKSLLKAQLFDEIIYYGDSARVPYGTKDPTTIKQFGLEALDFFKPHQIKLLIVACNTASALALEEMQKHSKIPVVGVIEPSILAIKRQVKDKNAPILVLGTKATIQSNAYDNALKQQGYLNVSHLATSLFVPLIEKSILEGELLETCMRYYFTPLEILPEVVILGCTHFPLIAQKIEGYFMEHFALSTPPLLIHSGDAIVEYLQQNYALKKNACAFPKVEFHASGDVVWLEKQAKEWLKL
[7]
  Km: 7360 µM
  kcat: 2.27 s⁻¹
[8]
  Km: 282 µM
  kcat: 0.0833 s⁻¹
